According to paper PMC5228132:

Key:
[1] = target: VdPG1 (Verticillium dahliae polygalacturonase 1) (Verticillium dahliae)
[2] = target: FovPG1 (Fusarium oxysporum f. sp. vasinfectum polygalacturonase 1) (Fusarium oxysporum f. sp. vasinfectum)
[3] = target: VdPG1 (Verticillium dahliae polygalacturonase 1) (Verticillium dahliae); remark: listed apart in the source

Substance: GhPGIP1 (cotton polygalacturonase-inhibiting protein 1) (natural protein)
- IC50 of inhibition; the text gives it for VdPG1, while the caption and footnote of Table 1 give it as antifungal activity on the growth of V. dahliae (eight doses of purified GhPGIP1) [1]: 44.4 µg/mL
- percent inhibition of PG activity by 3.24 nM GhPGIP1 over pH 7.0-10.0; 23.79% at pH 8.0 and 29.61% at pH 9.0 [2]: 29.6%
- percent inhibition of PG activity by 3.24 nM GhPGIP1 over pH 3.5-5.0; 26.88% at pH 4.2 and 31.45% at pH 4.8 [3]: 31.4%
